The values that follow come from patent US20160009819A1 (SHIONOGI, published 2016).

The target of assay [1] is T1, mouse EL with C2 tag (mouse, UniProt Q9WVG5 21-500).
T1 construct: Heparin extract of transfected HEK293F cells; also called mouse E1; not shown: C2 tag
T1 sequence (looked up): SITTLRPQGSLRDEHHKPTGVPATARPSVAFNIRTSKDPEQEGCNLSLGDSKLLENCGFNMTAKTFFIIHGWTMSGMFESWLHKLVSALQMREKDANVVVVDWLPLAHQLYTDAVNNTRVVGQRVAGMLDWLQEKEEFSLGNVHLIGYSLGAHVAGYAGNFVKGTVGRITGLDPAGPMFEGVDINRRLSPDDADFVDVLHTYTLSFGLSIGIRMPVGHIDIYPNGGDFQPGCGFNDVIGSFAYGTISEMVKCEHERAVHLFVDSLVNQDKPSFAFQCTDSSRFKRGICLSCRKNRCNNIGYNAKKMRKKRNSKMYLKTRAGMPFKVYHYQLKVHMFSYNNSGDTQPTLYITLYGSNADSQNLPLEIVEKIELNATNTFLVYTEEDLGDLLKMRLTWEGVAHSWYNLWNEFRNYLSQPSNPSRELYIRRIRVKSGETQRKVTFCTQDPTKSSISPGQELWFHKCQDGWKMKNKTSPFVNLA
Description: ELISA: antibody captured on anti-mouse IgG-Fc plate, C2-tagged EL heparin extract added, anti-C2-tag detection, A450 (Example 8). On the procedure:
(§1) Assay buffer containing 15 μl of anti-EL antibody was added to anti-mouse IgG-Fc antibody-immobilized microtiter plate, and incubated for 2 hr. […] After washing the wells three times with 90 μL, of washing buffer, 15 μl of assay buffer containing biotin-labeled anti-C2-tag antibody and HRP-labeled Streptavidin were added to the wells and incubated at room temperature for 1 hr. After washing the wells three times with 90 μL of washing buffer, 15 μL of TMB+-Substrate-Chromogen (DAKO) was added and incubated at room temperature for 30 min and then 15 μL of 0.05 M H2SO₄ was added and absorbance at 450 nm was measured (FIG. 3A-3K).
In general terms: In an ELISA, binding on a coated surface is turned into a signal by an enzyme label.

For assay [2], the target named is T2, human [1-305]-mouse chimeric EL with C2 tag (human; mouse, UniProt Q9WVG5 306-500).
T2 construct: Heparin extract of transfected HEK293F cells; probably 97; Built here from the name of the chimera; not shown: C2 tag
T2 sequence: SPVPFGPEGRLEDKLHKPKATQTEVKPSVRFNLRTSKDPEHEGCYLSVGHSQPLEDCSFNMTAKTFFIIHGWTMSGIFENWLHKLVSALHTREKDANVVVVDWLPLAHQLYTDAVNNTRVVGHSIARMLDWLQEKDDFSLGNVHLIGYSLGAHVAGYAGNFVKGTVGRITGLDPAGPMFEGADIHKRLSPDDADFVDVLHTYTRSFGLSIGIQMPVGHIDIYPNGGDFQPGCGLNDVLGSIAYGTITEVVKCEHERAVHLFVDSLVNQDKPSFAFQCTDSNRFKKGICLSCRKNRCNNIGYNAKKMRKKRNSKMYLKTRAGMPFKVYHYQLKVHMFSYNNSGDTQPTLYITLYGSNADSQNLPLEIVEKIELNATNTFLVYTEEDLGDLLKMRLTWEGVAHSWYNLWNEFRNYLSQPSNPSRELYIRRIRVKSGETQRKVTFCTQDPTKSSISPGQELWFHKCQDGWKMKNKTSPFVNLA
Description: SPR (Biacore), EL captured by anti-C2-tag antibody on CM5 chip, antibody injected, bivalent fit. On the procedure:
(§2) The binding affinities of anti-EL antibodies were measured using Biacore. […] Then, anti-EL antibodies were added and the binding affinities were calculated by bivalent fitting of BIAevaluation software.
For orientation: SPR reads the build-up and loss of mass on a sensor chip optically.

The target in assay [3] is T3, baboon EL (vascular endothelial lipase) with C2 tag (baboon, UniProt Q9Y5X9 21-500 (human entry), limits assumed).
T3 construct: also called baboon EL-C2 tag
T3 chain: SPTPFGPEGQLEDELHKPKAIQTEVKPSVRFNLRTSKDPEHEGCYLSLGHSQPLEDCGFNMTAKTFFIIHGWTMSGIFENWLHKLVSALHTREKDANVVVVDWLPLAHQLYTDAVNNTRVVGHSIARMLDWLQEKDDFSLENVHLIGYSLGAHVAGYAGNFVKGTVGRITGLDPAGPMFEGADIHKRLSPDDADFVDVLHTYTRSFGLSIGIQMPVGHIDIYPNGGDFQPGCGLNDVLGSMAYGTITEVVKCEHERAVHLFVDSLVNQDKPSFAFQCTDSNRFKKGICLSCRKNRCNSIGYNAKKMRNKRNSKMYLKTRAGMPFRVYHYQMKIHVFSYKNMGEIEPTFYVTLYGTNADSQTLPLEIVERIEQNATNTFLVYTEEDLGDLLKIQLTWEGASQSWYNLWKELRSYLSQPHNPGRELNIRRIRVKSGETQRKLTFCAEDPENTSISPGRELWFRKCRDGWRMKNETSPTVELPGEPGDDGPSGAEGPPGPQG
Description: ELISA: antibody captured on anti-mouse IgG-Fc plate, C2-tagged EL heparin extract added, anti-C2-tag detection, A450 (Example 8). On the procedure:
as §1

Assay [4] deals with T3, baboon EL (vascular endothelial lipase) …. The assay is described as follows: SPR (Biacore), EL captured by anti-C2-tag antibody on CM5 chip, antibody injected, bivalent fit. On the procedure: as §2
Assay [5] concerns the target T4, human [1-157]-mouse chimeric EL with C2 tag (human; mouse, UniProt Q9WVG5 158-500).
T4 construct: Heparin extract of transfected HEK293F cells; shifted by one: 4); Built here from the name of the chimera; not shown: C2 tag
T4 sequence: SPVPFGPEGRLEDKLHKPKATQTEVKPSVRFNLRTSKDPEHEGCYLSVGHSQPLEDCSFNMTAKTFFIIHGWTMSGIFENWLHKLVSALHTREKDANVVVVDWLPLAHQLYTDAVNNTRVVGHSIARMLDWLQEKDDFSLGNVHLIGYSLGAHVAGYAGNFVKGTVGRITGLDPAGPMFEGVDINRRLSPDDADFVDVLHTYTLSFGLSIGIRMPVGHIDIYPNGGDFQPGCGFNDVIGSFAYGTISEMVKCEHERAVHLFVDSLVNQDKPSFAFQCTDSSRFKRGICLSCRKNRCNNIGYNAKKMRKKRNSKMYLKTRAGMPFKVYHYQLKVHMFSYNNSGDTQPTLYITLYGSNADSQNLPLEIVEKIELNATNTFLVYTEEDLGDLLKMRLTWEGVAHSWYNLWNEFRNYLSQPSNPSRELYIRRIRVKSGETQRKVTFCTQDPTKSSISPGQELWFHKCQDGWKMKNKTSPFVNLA
The assay is described as follows: ELISA: antibody captured on anti-mouse IgG-Fc plate, C2-tagged EL heparin extract added, anti-C2-tag detection, A450 (Example 8). On the procedure: as §1

B1: 13B3 antibody (antibody, V domains shown)
VH: EVQLQQSGPELLKPGASVKISCKASGYTFTEYTMHWVKQSHGKSLEWIGSINPYYGGTSYNEKFKDKATLTVDKSSNTAYMEFRSLTSEDCAVYYCARYGNYVGYFDYWGQGTTLTVSS
VL: ENVLTQSPAIMSASLGEKVTMSCRASSSVHYMYWYQQKSDASPKLWIYYTSNLAPGVPDRFSGSGSGNSYSLTISSMEGEDAATYYCQQFTSSPYTFGGGTKLEIK
notes: Mouse hybridoma antibody, IgG2a
With B1, the binding result in assay [1] was “no binding (tested: about 300 ng/mL)”.

B2: 16B3 antibody (antibody, V domains shown)
VH: DVKLVESGGGLVQPGGSLKLSCTASGFTFSGYTMSWVRQTPEKRLELVAEISFARDRAFYPDTVKGRFTISRDNAKNTLYLQMSSLKSEDTAMYYCTRLGGRNHDYWYFDVWGTGTTVTVSS
VL: DIVLTQSPTSLAVSPGQRATISCRASESVEYYGTSLMQWYQQKPGQRPQLLIYAASNVESGVPARFSGSGSGTDFSLNIHPVEEDDIAVYFCQQSWKVPFTFGSGTKLEIK
notes: as for B1
B2: the binding result in assay [1] is on record as “no binding (tested: about 300 ng/mL)”.

B3: 16E7 antibody (antibody, V domains shown)
VH: EVKLVESGGGLVQPGGSLKLSCAASGFTFSSYTMSWVRQTPEKRLELVAEISFTRSRAFYPDTVKGRFTISRDNAKNTLYLQMSSLKSEDTAMYYCARLGGNNYDYWYFDVWGTGTTVTVSS
VL: DIVLTQSPTSLAVSLGQRATISCRASESVEYYGTSLMQWYQQKPGQRPKLLIYAASNVESGVPARFSGSGSGTDFSLNIHPVEEDDIAMYFCQQSWKVPFTFGSGTKLEIK
notes: Mouse hybridoma antibody, IgG1
On to B3, for which, in assay [2], the association rate constant (kon) is 950000 M⁻¹ s⁻¹. Also, the “EC50 (read off the curve)” value in assay [3] is around 10 ng/mL.

B4: 53A11 antibody (antibody, V domains shown)
VH: EVQLQQSGPELLKPGASVKISCKASGYTFTDYTMHWVKQSHGKSLEWIGGINPYYGGTTYNEKFKDKATLTVDKSSSTAYMELRSLTSEDSAVYYCAKGDYYGGSYNYWGQGTTLTVSS
VL: DIVLTQSLATLSVTPGDSVSLSCRASQDISNSLHWYQQKSHESPRLLIKYASQSISGIPSRFSGSGSGTDFTLSINSVETEDFGMYFCQQSNSWPYTFGGGTKLEIK
notes: as for B1
Take B4: in assay [1], the binding result was “no binding (tested: about 300 ng/mL)”.

B5: 19E7 antibody (antibody, V domains shown)
VH: QVQLQQPGSVLVRPGASVKLSCKASGYTFTTYWMHWVKQRPGQGLEWIGEIHPYSGNNNNNEKFKGKATLTVDTSSSTAYVDLSRLTSEDSAVYYCARYDSNYVFAYWGQGTLVTVSA
VL: QIVLTQSPAIMSASPGEGVTITCSASSSVSYMHWFQQKPGTSPKLWIYSTSNLASGVPARFSGSGSGTSYSLTISRMEAEDAATYYCQQRDSYLTFGSGTKLEVK
notes: as for B1
As for B5, the kon in assay [4] amounted to 67000 M⁻¹ s⁻¹. Further, the binding result in assay [1] and in assay [5] was “no binding (tested: about 300 ng/mL)” in each case.

B6: 23H8 antibody (antibody, V domains shown)
VH: EVQLQQSGPELLKPGASVKISCKASGYTFTDNTIHWVKQSHGKSLEWIGHINPYYGGTNNNEKFKDKATLTVDKSSSTAYMELRSLTSEDSAIYYCARKGIYYSSPFDYWGQGTTLTVSS
VL: DIQMTQTTSSLSASLGDRVTISCRASQDINNYLNWYQQKPDGTVKLLISYTSKLHSGVPSRFSGSGSGTDYSLTISNLEREDFATYFCQQGNTLPFTFGSGTNLEIK
notes: as for B1
In the case of B6, in assay [1], the binding result was “no binding (tested: about 300 ng/mL)”.

B7: 14A1 antibody (antibody, V domains shown)
VH: QIQLVQSGPELKKPGETVKISCKASGYTFTNYGMNWVKQAPGKGLKWMGWINTYSGVPTYADDFKGRFAFSLETSASTAYLQINNFKNEDTATYFCARFSYYGRHYFDYWGQGTALTASS
VL: DIVLTQSPASLAVSLGQRATISCKASQSVDYDGDSYMNWYQQKPGQPPKLLIYAASNLKSGIPARFSGSGSGTDFTLNIHPVEEEDAATYYCQQTTDDPPWTFGGGTKLEIK
notes: as for B3
Turning to B7, the binding result in assay [1] is “no binding (tested: about 300 ng/mL)”.

B8: 7D4 antibody (antibody, V domains shown)
VH: QIQLVQSGPELKKPGETVKISCKASGYTFTNYGMNWVKQAPGKDLKWMGWINTYSGVPTYADDFKGRFAFSLETSASTAYLQINNLKNEDTATYFCARFSYYGRHYFDYWGQGTTLTVSS
VL: DIVLTQSPASLAVSLGQRATISCKASQSVDYDGDSYMNWYQQKPGQPPQLLIYAASNLGSGIPARFSGSGSGTDFTLNIHPVEEEDAATYYCHQSTDDPPWTFGGGTKLEIK
notes: as for B3
For B8, the binding result in assay [1] is reported as “no binding (tested: about 300 ng/mL)”.

B9: 2D5 antibody (antibody, V domains shown)
VH: QIQLVQSGPELKKPGETVKISCKASGYTFTNYGMNWVKQAPGKGLKWMGWINTYSGVPTYTDDFKGRFAFSLETSASTAFLQINNLKNEDTATYFCARFSYYGRHYFDYWGQGTTLTVSS
VL: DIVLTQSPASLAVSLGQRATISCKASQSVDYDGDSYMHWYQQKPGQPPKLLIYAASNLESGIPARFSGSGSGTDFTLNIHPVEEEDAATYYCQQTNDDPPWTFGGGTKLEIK
notes: as for B1
As for B9, the binding result in assay [1] is given as “no binding (tested: about 300 ng/mL)”.

B10: 55A1 antibody (antibody, V domains shown)
VH: QIHLVQSGPELKKPGETVKISCKASGYTFTNYGMNWVKQAPGKGLKWMGWINTYSGVPTYAGDFKGRFAFSLETSASTAYLQINNLKNEDTATYFCARRGYYGRRYFDVWGTGTTVTVSS
VL: DIVLTQSPASLAVSLGQRATISCKASQSVDYDVDSYMHWYQQKPGQPPKLLIYAASNLASGIPARFSGGGSGTDFTLNIHPVEEEDVATYYCQQTIEDPPTFGGGTKLEIK
notes: as for B1
In the case of B10, the binding result in assay [1] is “no binding (tested: about 300 ng/mL)”.

The term kon denotes the second-order rate constant of association. A higher kon goes with faster complex formation. As a reminder, the EC50 (read off the curve) is the concentration giving half of the maximal effect. Low readings indicate an effect from little substance, high ones a need for much substance.
